Results on 1 substance are retold here after publication PMC12177922, “In Vivo Ribosome-Amplified MetaBOlism, RAMBO, Effect Observed by Real Time Pulse Chase, RTPC, NMR Spectroscopy” (Biochemistry, 2025).

Assay [1] deals with Pyruvate kinase I from E. coli, PYK-F (E. coli) (UniProt P0AD61). Put plainly: ribosome titration of enzyme activity (direct 1H NMR kinetic assay); 120 nM PYK-F, ribosomes titrated up to 8 uM; change of initial velocity (pyruvate methyl peak) at 2 mM PEP and 4 mM ADP; 10 mM sodium phosphate pH 7.5, 50 mM KCl, 10 mM MgCl2, 10 °C; one site-specific binding model …; saturation not reached.

The target is the same in assay [2].
Assay [3] has the same target. This is another data set of the same source.
For assay [4] the target is unchanged. This is another data set of the same source.

On to “Intact 70S ribosomes from E. coli strain MRE600 (from UniProt P60723 1-201; P0AG55 1-177; P0A7R1 1-149; P0AA10 1-142; P0AG44 1-127; P0AG48 1-103; P61175 1-110; P68919 1-94; P0A7L8 1-85; P0A7M9 1-70; P0AG67 1-557; P0A7V3 1-233; P0A7X3 1-130; P0A7S3 1-124; P0A7U7 1-87) (complex)”, for which the Kd (in general, the concentration at which binding is half-saturated) in assay [1] was 10 µM. In assay [2], this substance yielded a decrease in sum of the influx rates of lactate, ethanol and acetate in living E. coli BL21(DE3) (RTPC-NMR), 2x chloramphenicol against none of 32%. Further, the kcat of PYK-F (ADP saturation curve) with 2 μM ribosomes against none in assay [3] was 10%. The same substance showed a PYK-F activity (initial velocity, NMR kinetic assay) with 3 μM ribosomes against none in assay [4] of 35%.
